Values joined by “and” are separate entries in the source; they are usually repeats but may differ in a detail not shown here. Identical values can stand only once.
B1: anti-SEB single domain antibody (sdAb) A3 (VHH)
VHH: EVQLVESGGGLVQAGDSLRLSCTASGRTFSRAVMGWFRQAPGKEREFVAAISAAPGTAYYAFYADSVRGRFSISADSAKNTVYLQMNSLKPEDTAVYYCAADLKMQVAAYMNQRSVDYWGQGTQVTVSS
B2: biotinylated sdAb A3 (VHH)
VHH: B1 VHH

What was measured:
Conditions in all cases: both partners purified
[1] = target: Staphylococcus aureus enterotoxin B (SEB) toxin (Staphylococcus aureus, strain , UniProt P01552); test: SPR
[2] = target: staphylococcal enterotoxin A (SEA) (Staphylococcus aureus, strain , UniProt P0A0L2); test: Luminex fluid array direct binding assay
Shiga Toxin 1 (STX-1) = Shiga Toxin 1 (STX-1) (Stx1 (phage H30 of Escherichia coli), …, UniProt P10149;P69178); test: Luminex fluid array direct binding assay
[3] = target: staphylococcal enterotoxin D (SED) (Staphylococcus aureus, strain , UniProt P20723); test: Luminex fluid array direct binding assay

Sequence of Shiga Toxin 1 (STX-1) (P10149 23-315, chain 1 of 2): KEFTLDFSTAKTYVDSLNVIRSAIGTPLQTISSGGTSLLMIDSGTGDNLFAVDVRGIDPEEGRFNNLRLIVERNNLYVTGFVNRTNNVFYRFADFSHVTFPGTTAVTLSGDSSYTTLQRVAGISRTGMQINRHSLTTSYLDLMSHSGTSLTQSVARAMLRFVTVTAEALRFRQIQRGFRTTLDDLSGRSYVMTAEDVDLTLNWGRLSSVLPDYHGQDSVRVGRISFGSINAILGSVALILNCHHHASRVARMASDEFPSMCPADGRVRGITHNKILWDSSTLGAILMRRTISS
Sequence of Shiga Toxin 1 (STX-1) (P69178 21-89, chain 2 of 2): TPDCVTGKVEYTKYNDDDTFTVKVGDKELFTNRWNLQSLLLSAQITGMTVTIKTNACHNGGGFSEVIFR

Binder	koff [1]	kon [1]	Kd [1] [nM]	binding result [2]	binding result (Shiga Toxin 1 (STX-1))	binding result [3]
B1	6e-05 s⁻¹ and 2.2e-05 s⁻¹	100000 M⁻¹ s⁻¹ and 290000 M⁻¹ s⁻¹				
B2	2.8e-05 s⁻¹	72000 M⁻¹ s⁻¹	0.39	no binding	no binding	no binding

— paper PMC3193169 (BMC Biotechnology, 2011)
